# Measurements: patent publication US12018084B2, “Anti-CXCR2 antibodies and uses thereof” (Cephalon LLC, priority 2018, dated 2024)
# Substitutions are numbered along the chain they refer to. In names and notes the source's numbering stands.
# T1: native human CXCR2 expressed by human neutrophils (Homo sapiens, UniProt P25025)
# T1 construct: native human CXCR2 expressed by human neutrophils; endogenous in cells; host or cells: human peripheral blood cells (buffy coat, PBMC-enriched fractions, anticoagulated blood): neutrophils, monocytes
# T1 sequence (P25025 1-360): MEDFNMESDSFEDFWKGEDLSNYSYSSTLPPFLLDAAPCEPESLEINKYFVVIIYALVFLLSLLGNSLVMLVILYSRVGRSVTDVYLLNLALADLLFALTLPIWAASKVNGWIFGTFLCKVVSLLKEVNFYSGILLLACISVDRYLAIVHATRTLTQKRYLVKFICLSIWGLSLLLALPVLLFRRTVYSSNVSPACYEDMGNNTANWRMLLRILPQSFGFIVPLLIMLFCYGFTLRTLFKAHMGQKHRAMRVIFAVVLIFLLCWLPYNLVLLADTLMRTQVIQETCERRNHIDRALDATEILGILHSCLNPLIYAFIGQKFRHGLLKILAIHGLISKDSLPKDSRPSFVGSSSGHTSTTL
# T2: Human CXCR2 (Homo sapiens, UniProt P25025)
# T2 sequence (P25025 1-360): T1 sequence (P25025 1-360)
# B1: BKO-4A8-mIgG1: BKO-4A8 variable chains on an effector function-reduced mouse IgG1 constant region (SEQ ID NOs: 113 and 114) (antibody)
# heavy: EVQLLESGGGLVQPGGSLRLSCAASGFTFSSSTMSWVRQAPGKGLEWVSAISGRGRNTYYADSVKGRFTISRDNSRNTLYLQMNSLRAEDTAVYYCAIQMGYWGQGILVTVSSAKTTPPSVYPLAPGSAAQTNSMVTLGCLVKGYFPEPVTVTWNSGSLSSGVHTFPAVLQSDLYTLSSSVTVPSSPRPSETVTCNVAHPASSTKVDKKIVPRDCGCKPCICTVPEVSSVFIFPPKPKDVLTITLTPKVTCVVVAISKDDPEVQFSWFVDDVEVHTAQTQPREEQFNSTFRSVSELPIMHQDWLNGKEFKCRVNSAAFPAPIEKTISKTKGRPKAPQVYTIPPPKEQMAKDKVSLTCMITDFFPEDITVEWQWNGQPAENYKNTQPIMNTNGSYFVYSKLNVQKSNWEAGNTFTCSVLHEGLHNHHTEKSLSHSPG
# light: QSALTQPPSASGSPGQSVTISCIGTSSDVGGYNYVSWYQQHPDKAPKLMIYEVNKRPSGVPDRFSGSKSGNTASLTVSGLQAEDEADYYCSSYAGNNNFGVFGGGTKLTVLGQPKSSPSVTLFPPSSEELETNKATLVCTITDFYPGVVTVDWKVDGTPVTQGMETTQPSKQSNNKYMASSYLTLTARAWERHSSYSCQVTHEGHTVEKSLSRADCS
# modifications: effector function-reduced mouse IgG1 constant region; BKO-4A8-mIgG1 VH; BKO-4A8-mIgG1 VL
# B2: BKO-8G3_b: recombinant, VH SEQ ID NO: 41, VL SEQ ID NO: 42 (antibody, V domains shown)
# VH: EVQLLESGGGLVQPGGSLRLSCAASGFTFSSYAMSWVRQAPGKGLEWVSAITGSGGSTYYADSVKGRFTISRDKSKNTLYLQMNSLRAEDTAVYYCAIRLGYWGQGSLVTVSS
# VL: QSALTQPPSASGSPGQSVTISCTGTSSDVGGYNYVSWYQQHPGKVPKLVIYEVSKRPSGVPDRFSGSKSGNTASLTVSGLQAEDEADYYCSSYAGSNNFGVFGGGTKLTVL
# modifications: BKO_8G3_H4_D04_VH; BKO_8G3_L1_G01_VL
# B3: V97A: BKO-4A8 point variant, VL SEQ ID NO: 96 (antibody, V domains shown)
# VL: B2 VL with T23I, G43D, V45A, V49M, S54N, S96N, V101A
# modifications: VH not cited; 4A8 VL V97A
# B4: Y91A: BKO-4A8 point variant, VL SEQ ID NO: 83 (antibody, V domains shown)
# VL: B2 VL with T23I, G43D, V45A, V49M, S54N, Y93A, S96N
# modifications: VH not cited; 4A8 VL Y91A
# B5: 106c: VH SEQ ID NO: 166, VL SEQ ID NO: 110 (antibody, V domains shown)
# VH: B2 VH with Y32S, A33T, M34Q, A40P, T52S, K74N, R99Q, L100E, S107I
# VL: B2 VL with T23I, V45A, V49M
# modifications: 4A8 VH Variant 106 M34Q_A40P_R53S_R55G_N56S_ R75K_M96E; 4A8 VL variant c D41G_N52S_N94S
# B6: BKO-9C3_a: recombinant, VH SEQ ID NO: 49, VL SEQ ID NO: 50 (antibody, V domains shown)
# VH: B2 VH with L4V, S30R, T52S, R99Q, S107T
# VL: B2 VL with T19I, V49M, S91T
# modifications: BKO_9C3_H8_G08_VH; BKO_9C3_L1_F01_VL
# B7: V97K: BKO-4A8 point variant, VL SEQ ID NO: 97 (antibody, V domains shown)
# VL: B2 VL with T23I, G43D, V45A, V49M, S54N, S96N, V101K
# modifications: VH not cited; 4A8 VL V97K
# How the values were obtained:
# hCXCR2 knock-in mice = assay: House dust mite (HDM) severe asthma model in hCXCR2 knock-in mice; type: in vivo, mouse; settings: 10 mg/kg intraperitoneal days 5 and 12, versus vehicle
# Description: hCXCR2 knock-in mice were generated by use of homologous recombination in embryonic stem (ES) cells to insert the human CXCR2 into exon 1 of the mouse CXCR2 gene. The single coding exon of human CXCR2 was inserted into a vector with 5′ and 3′ arms homologous to the genomic location of the mouse coding exon of CXCR2, giving rise to a gene structure that coded for human CXCR2 but retained the mouse non-coding and regulatory elements. This vector was electroporated into C57B1/6 mouse ES cells which were incorporated into C57B1/6 mouse blastocysts and transplanted into pseudopregnant female mice. Pups were backcrossed to the parental C57B1/6 strain and offspring screened by southern blot for germline transmission of the human CXCR2 gene. Mice heterozygous for human CXCR2 were intercrossed to give a homozygous human CXCR2 line and phenotype was confirmed by analysis of binding of anti-mouse and anti-human CXCR2 antibodies by flow cytometry.
# The anti-CXCR2 antibody BKO-4A8-mIgG1 (SEQ ID NOs: 113 and 114) was generated by formatting the variable heavy and light chains of BKO-4A8 onto an effector function-reduced mouse IgG1 constant region. Female hCXCR2 knock-in mice were subjected to sensitization with 50 μg HDM in complete Freund's adjuvant (CFA) administered by subcutaneous injection on day 0 and intranasal challenge with […] without CFA on day 14. Animals were treated with vehicle or BKO-4A8-mIgG1 (10 mg/kg) via intraperitoneal injection on days 5 and 12. Inflammatory responses were characterized at endpoint on day 16 by total and differential cell counts in bronchoalveolar lavage (BAL) fluid of the right lung. The left lung was fixed in 10% formalin for histopathology and mucus production assessment.
# Statistical evaluation was performed using a Mann-Whitney nonparametric unpaired t test with outliers identified using Grubbs' test (Alpha=0.01) to discern statistically significant differences between the vehicle and treatment groups. All statistical analyses were performed using GraphPad Prism™ 7.01.
# [1] = tested on: native cynomolgus CXCR2 expressed by cynomolgus neutrophils; assay: Flow cytometry binding to cynomolgus blood neutrophils; design: species or system cynomolgus monkey; settings: FIG. 2, MFI
# Method: (§1) Whole human buffy coat, PBMC enriched fractions prepared from human peripheral blood buffy coat or cynomolgus monkey whole blood was used for analysis of antibody binding activity by flow cytometry. Briefly, blood was untreated or diluted 1:1 in sterile filtered room temperature phosphate-buffered saline (PBS). 30 mL samples were layered over 15 mL Lymphoprep™ (Stem Cell Technologies, cat #07851). Peripheral blood mononuclear cells (PBMC) were enriched by room temperature centrifugation at 700 g for 30 minutes with no braking. The PBMC layer was isolated and cells washed in PBS containing 2 mM EDTA with low speed centrifugation at 200 g, to remove platelet contamination. Whole blood or PBMC enriched cell fractions were resuspended in red blood cell lysing solution (BioLegend, 420301). Viable cell counts were determined and cells resuspended at 1×10^7 cells per mL in FACS buffer (1×PBS+0.5% (w/v) BSA+2 mM EDTA pH 7.2).
# Flow cytometry binding assays using whole blood or PBMC enriched preparations: Binding assays to detect CXCR2 on blood neutrophil populations using test antibodies were performed essentially as described for assays using transiently transfected Expi293F™ cells. Binding of antibodies to human CXCR2 on the surface of the neutrophils was measured using anti-CXCR2 antibody directly conjugated to the fluorophore allophycocyanin (APC). Matched isotype control antibodies were included for comparison. Cells were incubated with lineage specific antibodies and 2 μg/ml of APC conjugated anti-CXCR2 antibody or isotype control prepared in ice cold 3% BSA/PBS for a minimum of 30 minutes at 4° C. The commercial anti-CXCR2 antibody (clone 48331 (R&D Systems FAB331A)) was used as a positive control. […] The level of fluorescence on the cell surface was measured by flow cytometry. Using this method, test anti-CXCR2 antibodies were detected binding neutrophils from both human and cynomolgus monkey.
# [2] = target: T1, native human CXCR2 expressed by human neutrophils; assay: Flow cytometry binding to human blood cells (neutrophils, monocytes, PBMC preparations); settings: FIG. 2, MFI
# Method: as §1
# Flow cytometry binding assays using whole blood or PBMC enriched preparations: Binding assays to detect CXCR2 on blood neutrophil populations using test antibodies were performed essentially as described for assays using transiently transfected Expi293F™ cells. Binding of antibodies to human CXCR2 on the surface of the neutrophils was measured using anti-CXCR2 antibody directly conjugated to the fluorophore allophycocyanin (APC). Matched isotype control antibodies were included for comparison. Cells were incubated with lineage specific antibodies and 2 μg/ml of APC conjugated anti-CXCR2 antibody or isotype control prepared in ice cold 3% BSA/PBS for a minimum of 30 minutes at 4° C. The commercial anti-CXCR2 antibody (clone 48331 (R&D Systems FAB331A)) was used as a positive control. Neutrophil populations were identified by characteristic granularity and size, and positive binding of commercially available antibodies against CD10 (Biolegend, clone H110a, catalogue number 312204). Cells were washed and fixed (BioLegend Fixation buffer, 420801) prior to analysis. The level of fluorescence on the cell surface was measured by flow cytometry. Using this method, test anti-CXCR2 antibodies were detected binding neutrophils from both human and cynomolgus monkey.
# To further characterize the anti-CXCR2 antibody BKO-4A8-101c, the ability to bind CXCR2 on neutrophils was tested on anticoagulated human blood. Binding was measured using BKO-4A8-101c directly conjugated to fluorophore APC. Matched isotype control antibodies conjugated to APC were included for comparison. Cells were incubated with lineage-specific antibodies and 2 μg/mL of APC conjugated anti-CXCR2 antibody or isotype control. The level of fluorescence on the cell surface was measured by flow cytometry. […]
# Human CXCR2 = target: T2, Human CXCR2; assay: Flow cytometry binding assay, Expi293F cells transiently transfected with human CXCR2; design: host or cells: Expi293F cells, vector pTT5; settings: for Fold change in binding relative to BKO-4A8: point variant chain co-expressed with parental other chain
# Method: For each 10 mL transfection, lipid-DNA complexes were prepared by diluting 10 μg of plasmid DNA in Opti-MEM™ I Reduced Serum Medium (Cat. no. 31985-062) to a total volume of 1.0 mL. 54 μL of ExpiFectamine™ 293 Reagent was diluted in Opti-MEM™ I medium to a total volume of 1.0 mL. Transfections were carried out according to manufacturer's instructions. The cells were incubated in a 37° C. incubator with a humidified atmosphere of 8% CO2 in air on an orbital shaker rotating at 200 rpm. Approximately 18-24 hours post-transfection, the cell viability was evaluated and transfected cells harvested for use.
# Harvested cells were resuspended in FACS buffer (1×PBS+0.5% (w/v) bovine serum albumin (BSA)+2 mM EDTA pH 7.2). Approximately 2×10^5 cells were added per well in a 96-well round-bottomed plate. Cells were pelleted by centrifugation at 400 g for 5 mins at 4° C. and supernatants discarded. 25 μL of each test antibody or control antibody was added to the cells and incubated for 30 minutes at 4° C. Cells were washed twice in 100 μL FACS buffer followed by centrifugation at 400 g for 5 mins at 4° C.
# For detection, 50 μL of secondary antibody (Table 2) was added to relevant samples. Commercially available antibodies that bound to transfected CXCR family members were used as positive controls to ensure that the cells were expressing the receptors. Cells were washed twice in 200 μL of FACS buffer followed by centrifugation at 400 g for 5 mins at 4° C. Before sample acquisition, cells were resuspended in 100 μL of FACS buffer. Samples were acquired using the high throughput sampler on a FACSCanto™ II cytometer (Beckton-Dickinson).
# Binding of BKO-4A8 and variants thereof was detected by incubation of fluorochrome-conjugate anti-human IgG light chain lambda antibody. The binding activity of antibodies tested, quantified as mean fluorescent intensity, was independent of the antibody Fc region as illustrated in FIG. 9.
# native cynomolgus CXCR2 expressed by cynomolgus neutrophils, sequence (as listed by the source): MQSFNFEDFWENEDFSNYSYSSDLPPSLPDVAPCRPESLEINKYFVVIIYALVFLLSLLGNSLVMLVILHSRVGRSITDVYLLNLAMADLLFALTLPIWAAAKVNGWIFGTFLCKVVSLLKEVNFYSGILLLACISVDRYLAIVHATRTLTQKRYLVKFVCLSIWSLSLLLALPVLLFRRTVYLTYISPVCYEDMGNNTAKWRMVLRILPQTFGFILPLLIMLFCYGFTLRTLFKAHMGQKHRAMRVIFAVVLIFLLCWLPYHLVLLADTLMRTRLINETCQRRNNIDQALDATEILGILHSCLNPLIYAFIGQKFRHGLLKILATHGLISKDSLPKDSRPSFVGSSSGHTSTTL
molecule,measurement,setting,value
B1,goblet cell hyperplasia,hCXCR2 knock-in mice; p=0.0052,reduced goblet cell hyperplasia
same,reduction in BAL eosinophil counts,hCXCR2 knock-in mice; p=0.017,> 60%
same,reduction in BAL neutrophil counts,hCXCR2 knock-in mice; p=0.028,> 60%
B2,binding to native cynomolgus CXCR2 on cynomolgus PBMCs / neutrophils,[1],high binding activity
same,binding to native human CXCR2 on human PBMCs / neutrophils,[2],high binding activity
B3,Fold change in binding relative to BKO-4A8,Human CXCR2,1.7
B4,Fold change in binding relative to BKO-4A8,Human CXCR2,1.7
B5,CXCR2 binding activity versus parental BKO-4A8,Human CXCR2; combinatorial variants with light chain c,reduced
B6,binding to native cynomolgus CXCR2 on cynomolgus PBMCs / neutrophils,[1],above average levels of binding
same,binding to native human CXCR2 on human PBMCs / neutrophils,[2],substantial levels of binding
B7,Fold change in binding relative to BKO-4A8,Human CXCR2,1.0
